The Tm is the temperature at the midpoint of the melting transition.

Values joined by “and” are separate entries in the source; they are usually repeats but may differ in a detail not shown here. Equal values may be shown once.

The conditions of this series: Capra hircus, pH 7.5, Thermal, Tris-HCl 10 mM, CaCl2 2 mM, whole UniProt chain shown.

B1: Alpha-lactalbumin wild type, P00712 (protein)
chain: MMSFVSLLLVGILFHATQAEQLTKCEVFQKLKDLKDYGGVSLPEWVCTAFHTSGYDTQAIVQNNDSTEYGLFQINNKIWCKDDQNPHSRNICNISCDKFLDDDLTDDIVCAKKILDKVGINYWLAHKALCSEKLDQWLCEKL
For B1, the Tm is, setting by setting: (DSC) 71 °C and 71.1 °C; (Fluorescence) 70.7 °C and 71.2 °C and 69.9 °C.
